In publication PMC7721913:

Molecular target: HA-SFPQ (human) (UniProt P23246)
Test: co-IP

Chain of HA-SFPQ (human) (P23246 whole entry): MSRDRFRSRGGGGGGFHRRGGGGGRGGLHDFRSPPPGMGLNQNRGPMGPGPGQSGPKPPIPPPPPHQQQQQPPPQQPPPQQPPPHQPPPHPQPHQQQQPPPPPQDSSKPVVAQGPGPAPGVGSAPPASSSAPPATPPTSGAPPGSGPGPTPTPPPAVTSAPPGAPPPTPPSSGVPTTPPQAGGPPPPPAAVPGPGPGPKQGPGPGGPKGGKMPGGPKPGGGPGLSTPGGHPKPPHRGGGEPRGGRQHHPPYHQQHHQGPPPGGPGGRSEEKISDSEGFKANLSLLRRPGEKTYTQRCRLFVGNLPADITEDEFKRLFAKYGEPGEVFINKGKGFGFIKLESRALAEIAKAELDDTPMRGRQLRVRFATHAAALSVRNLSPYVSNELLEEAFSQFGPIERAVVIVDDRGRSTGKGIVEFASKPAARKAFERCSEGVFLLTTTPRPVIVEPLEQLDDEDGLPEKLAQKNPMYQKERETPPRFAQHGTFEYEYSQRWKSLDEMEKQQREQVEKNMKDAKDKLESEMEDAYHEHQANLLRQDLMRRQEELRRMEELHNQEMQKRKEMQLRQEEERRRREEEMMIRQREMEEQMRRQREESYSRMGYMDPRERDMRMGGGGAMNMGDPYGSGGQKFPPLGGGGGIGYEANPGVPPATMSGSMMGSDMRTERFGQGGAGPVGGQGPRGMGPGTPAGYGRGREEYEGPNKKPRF
Chain of Myc-KLC1 ΔTail (domain or fragment) (O88447 whole entry, stated change not applied, the tested form may be a part): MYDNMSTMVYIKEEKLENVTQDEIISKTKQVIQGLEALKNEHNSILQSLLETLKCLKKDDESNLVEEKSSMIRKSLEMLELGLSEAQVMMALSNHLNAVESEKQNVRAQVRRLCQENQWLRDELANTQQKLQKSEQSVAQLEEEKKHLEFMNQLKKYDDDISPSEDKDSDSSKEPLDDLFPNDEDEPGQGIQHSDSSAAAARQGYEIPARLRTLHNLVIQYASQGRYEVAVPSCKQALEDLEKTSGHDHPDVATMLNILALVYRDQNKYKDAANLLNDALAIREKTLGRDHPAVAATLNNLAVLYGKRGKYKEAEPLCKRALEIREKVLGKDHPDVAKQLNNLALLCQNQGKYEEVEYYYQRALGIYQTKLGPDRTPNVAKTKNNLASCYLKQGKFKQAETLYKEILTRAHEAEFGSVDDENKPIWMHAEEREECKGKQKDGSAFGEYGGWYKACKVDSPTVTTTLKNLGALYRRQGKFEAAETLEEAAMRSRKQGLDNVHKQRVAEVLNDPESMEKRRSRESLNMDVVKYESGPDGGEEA

Substance: Myc-KLC1 ΔTail (domain or fragment)
- reduction of binding against WT KLC1: 50%
